Assay results taken from US20120231006A1 (Amgen, published 2012).

How the values were obtained:
[1] = molecular target: T1, mOrai1-hOrai1 ECL2 chimeric protein (human/mouse chimera, UniProt Q8BWG9 1-304 (mouse entry)); test: FACS, 293EBNA, RFI-POC grade; set-up: concentration or dose not given beside the values
T1 construct: mouse Orai1 with human ECL2; also called Ch
Text: (§1) FIG. 16A-D illustrates the results of FACS analysis showing binding to the indicated mOrai1-hOrai1 ECL2 chimeric mutants expressed on the surface of HEK-293-EBNA cells. Transfected cells were stained first with recombinant monoclonal antibodies then counter-stained with a secondary phycoerythrin-labeled goat (“Gt”) anti-human (“Hu”) IgG F(ab′)₂ antibody fragment and visualized using FACS. In FIG. 16B and FIG. 16D, The values of Relative Fluorescence Intensity as Percent of Control (RFI-POC) are calculated from the relative fluorescence intensity geometric mean (Geo Mean). The geometric mean is an average calculated by multiplying a series of numbers and taking the nth root where n is the number of numbers in the series. It is a statistical average of a set of transformed numbers often used to represent a central tendency in a highly variable data set that minimizes the effects of extreme values.
(§2) Table 11A and Table 11B feature a schematic representation of the POC data from FIG. 16B and FIG. 16D, respectively, where the binding results are recorded as (+++) denoting binding POC from 40% to 100%, (++) for POC of 5% to less than 40%, (+) for POC from 1% to less than 5% and (−) as lack of binding with POC less than 1%.

[2] = molecular target: T2, mOrai1-hOrai1 ECL2 (VIV) protein (human/mouse chimera, UniProt Q8BWG9 1-304 (mouse entry)); test: FACS, 293EBNA, RFI-POC grade; set-up: concentration or dose not given beside the values
T2 construct: also called Ch
Text: as §1, §2

[3] = molecular target: T3, mOrai1-hOrai1 ECL2 (HSD) protein (human/mouse chimera, UniProt Q8BWG9 1-304 (mouse entry)); test: FACS, 293EBNA, RFI-POC grade; set-up: concentration or dose not given beside the values
T3 construct: also called Ch
Text: as §1, §2

human Orai2 = molecular target: T4, human Orai2 (human, UniProt Q96SN7 1-254); test: FACS, 293EBNA transfectants
T4 construct: also called hOrai2
Experimental: (§3) Purified monoclonal antibodies from hybridoma supernantants of the subclones derived from initial hits were assessed for binding to human Orai1, Orai2 and Orai3 expressed on HEK-293-EBNA cells along with vector transfected control parental cells. Cells stained with or without primary mAbs were counter-stained with a secondary phycoerythrin-labeled goat (“Gt”) anti-human (“Hu”) IgG F(ab′)₂ antibody fragment and visualized using FACS.
(§4) FACS binding analysis. Transfected 293EBNA cells transiently expressed hOrai1, human Orai2, or human Orai3 (results of binding comparison in FIG. 11A-B), or hOrai1(S218G) (results of binding comparison in FIG. 12A-B); or hOrai1 and hSTIM1; mOrai1 and mouse STIM1; or rat Orai1 and rat STIM1 (results of binding comparison in FIG. 13). The transfected cells were harvested at 48 hours post-transfection. Cells transfected with pcDNA3.1 were used as negative controls. Cells were washed once with ice-cold 1×PBS, resuspended in ice-cold FACS buffer (1×D-PBS+2% goat serum), and 2×10⁵ cells in […] were stained per antibody combination. All antibody incubation steps were performed on ice for 1 hour. […] Next, the unlabelled antibody was detected using goat F(ab′)₂ anti-mouse or anti-human IgG-phycoerythrin (IgG-PE), followed by a wash with 200 μL of ice-cold FACS buffer before flow cytometry analysis. Unstained cells and cells stained with detecting antibodies were used as negative controls. The values of relative level of fluorescence were calculated using FCS Express (De Novo Software) and mean values were calculated using log-transformed data (geometric mean). Purified mAbs were assessed by FACS assay for their ability to specifically bind human Orai1, Orai2 and Orai3 proteins expressed on HEK-293 cells.

human Orai3 = human Orai3 (human, UniProt Q9BRQ5 1-295); test: FACS, 293EBNA transfectants
Experimental: as §3, §4

mouse Orai1 = molecular target: T5, mouse Orai1 (mouse, UniProt Q8BWG9 1-304); test: FACS, 293EBNA transfectants with STIM1, thapsigargin
T5 construct: co-expressed with mouse STIM1; also called mOrai1
Experimental: (§5) FIG. 13A-B illustrates the results of FACS analysis showing binding to human Orai1 expressed on the surface of HEK-293-EBNA cells that were treated with 2 μM Thapsigargin. HEK-293-EBNA cells were transiently transfected with human Orai1 and human STIM1, mouse Orai1 and mouse STIM1, rat Orai1 and rat STIM1 and control empty vector. Transfected cells were stained first with recombinant monoclonal antibodies then counter-stained with a secondary phycoerythrin-labeled Gt anti-Hu IgG F(ab′)₂ or Gt anti-Mu IgG F(ab′)₂ antibody fragment, as appropriate, and visualized using FACS.
as §4

rat Orai1 = molecular target: T6, rat Orai1 (rat, UniProt Q5M848 1-304); test: as above
T6 construct: co-expressed with rat STIM1; also called rOrai1
Experimental: as §5, §4

human Orai1 = molecular target: T7, human Orai1 (human, UniProt Q96D31 1-301); test: FACS Kd, AM1-CHO/hOrai1/hSTIM1-YFP cells
T7 construct: on AM1-CHO/hOrai1/hSTIM1-YFP, AM1/hOrai1, HEK-293 transfectants, endogenous on Jurkat and blood cells; in Westerns from cell lysates; also called hOrai1; CRACM1
Experimental: The equilibrium plates were centrifuged at 500 g for 3 minutes and cell pellets were washed twice with 200 μL of ice cold FACS buffer (1×D-PBS+2% FBS). The cells were then incubated with a secondary antibody, goat anti-human Fc Cy5 at 5 μg/mL and 100 μL per well for 1 h on ice in the dark. Following the incubation, the cells were washed twice with 200 μL of ice-cold FACS buffer before flow cytometry analysis. The GeoMean values gated on live cell population measure the bound [Ab]. The inverse of the GeoMean values that reflects theoretical free [Ag] in the equilibrium solution was then calculated. The inverse values of the GeoMean read were used in KinExA® Pro software for analysis and Kd calculation for each antibody. The free [Ag] measure was plotted against the starting concentration of titrating component and from these plots at two different cell concentrations the Kd was obtained from curve fitting using n-curve analysis in KinExA Pro software. […] Shown in Table 14 (below) are the equilibrium dissociation constant (Kd) values of invented mAbs determined by FACS Kd measurement.

T5 sequence (Q8BWG9 whole entry): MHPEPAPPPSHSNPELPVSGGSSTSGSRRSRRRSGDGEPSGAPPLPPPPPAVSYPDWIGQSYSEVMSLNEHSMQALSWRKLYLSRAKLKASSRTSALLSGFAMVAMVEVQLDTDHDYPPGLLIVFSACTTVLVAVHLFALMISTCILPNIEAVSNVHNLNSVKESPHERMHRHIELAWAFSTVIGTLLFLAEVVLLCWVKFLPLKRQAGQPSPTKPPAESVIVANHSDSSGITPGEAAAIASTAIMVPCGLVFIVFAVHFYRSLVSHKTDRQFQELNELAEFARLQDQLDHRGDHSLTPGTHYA
T7 sequence (Q96D31 whole entry): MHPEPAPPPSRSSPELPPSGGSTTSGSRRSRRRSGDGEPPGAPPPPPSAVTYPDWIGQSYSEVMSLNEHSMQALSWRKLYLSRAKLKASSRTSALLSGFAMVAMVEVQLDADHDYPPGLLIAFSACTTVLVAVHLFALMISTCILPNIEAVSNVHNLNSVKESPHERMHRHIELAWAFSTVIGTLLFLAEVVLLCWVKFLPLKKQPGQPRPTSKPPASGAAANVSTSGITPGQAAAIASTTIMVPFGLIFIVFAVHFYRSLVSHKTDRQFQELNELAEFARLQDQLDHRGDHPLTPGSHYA
T2 sequence (Q8BWG9 other isoform, or with tags, fused parts or gaps): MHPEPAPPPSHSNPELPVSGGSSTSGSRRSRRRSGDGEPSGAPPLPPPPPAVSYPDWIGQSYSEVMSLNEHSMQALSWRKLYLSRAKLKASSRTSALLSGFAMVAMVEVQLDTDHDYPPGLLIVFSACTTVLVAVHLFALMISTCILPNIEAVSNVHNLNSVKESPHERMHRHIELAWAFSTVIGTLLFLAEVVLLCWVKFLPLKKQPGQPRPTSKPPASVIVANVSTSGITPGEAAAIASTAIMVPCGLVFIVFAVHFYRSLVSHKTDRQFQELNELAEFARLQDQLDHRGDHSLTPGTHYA
T3 sequence (Q8BWG9 other isoform, or with tags, fused parts or gaps): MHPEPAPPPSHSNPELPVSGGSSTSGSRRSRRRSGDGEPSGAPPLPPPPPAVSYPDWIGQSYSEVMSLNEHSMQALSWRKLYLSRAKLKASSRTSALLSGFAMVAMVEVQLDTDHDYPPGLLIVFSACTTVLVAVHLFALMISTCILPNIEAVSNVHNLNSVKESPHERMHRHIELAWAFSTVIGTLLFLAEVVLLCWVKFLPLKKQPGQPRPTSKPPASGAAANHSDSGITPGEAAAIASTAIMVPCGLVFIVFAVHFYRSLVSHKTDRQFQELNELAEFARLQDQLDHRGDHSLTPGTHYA
T4 sequence (Q96SN7 whole entry): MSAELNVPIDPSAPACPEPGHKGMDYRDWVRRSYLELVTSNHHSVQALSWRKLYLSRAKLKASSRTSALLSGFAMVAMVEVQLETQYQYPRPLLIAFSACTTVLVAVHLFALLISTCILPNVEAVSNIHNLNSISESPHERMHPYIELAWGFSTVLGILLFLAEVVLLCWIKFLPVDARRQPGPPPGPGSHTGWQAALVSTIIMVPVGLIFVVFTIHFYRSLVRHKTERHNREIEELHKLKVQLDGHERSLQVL
T1 sequence (Q8BWG9 other isoform, or with tags, fused parts or gaps mutant): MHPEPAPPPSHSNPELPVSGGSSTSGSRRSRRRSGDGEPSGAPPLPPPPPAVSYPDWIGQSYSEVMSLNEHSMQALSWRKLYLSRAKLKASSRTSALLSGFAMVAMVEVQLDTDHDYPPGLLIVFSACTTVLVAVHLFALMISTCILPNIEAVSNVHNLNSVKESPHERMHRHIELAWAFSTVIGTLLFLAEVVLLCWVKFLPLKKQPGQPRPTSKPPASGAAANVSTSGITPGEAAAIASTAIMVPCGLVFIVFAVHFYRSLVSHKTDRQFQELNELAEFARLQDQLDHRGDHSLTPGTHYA
T6 sequence (Q5M848 whole entry): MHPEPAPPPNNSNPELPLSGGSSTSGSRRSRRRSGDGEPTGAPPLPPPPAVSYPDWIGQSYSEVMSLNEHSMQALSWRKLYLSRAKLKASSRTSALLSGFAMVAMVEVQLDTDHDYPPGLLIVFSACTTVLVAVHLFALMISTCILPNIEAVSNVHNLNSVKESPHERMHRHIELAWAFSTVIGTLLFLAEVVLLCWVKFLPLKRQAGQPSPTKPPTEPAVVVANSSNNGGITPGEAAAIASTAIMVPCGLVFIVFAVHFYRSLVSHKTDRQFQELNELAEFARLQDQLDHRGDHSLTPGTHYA

| Binder | POC (percent of control, FACS Geo Mean relative to binding to Ch. 1) [1] [%] | POC (percent of control, FACS Geo Mean relative to binding to Ch. 1) [2] [%] | POC (percent of control, FACS Geo Mean relative to binding to Ch. 1) [3] [%] | binding result (human Orai2) | binding result (human Orai3) | binding result (mouse Orai1) | binding result (rat Orai1) | Kd (human Orai1) [nM] |
| --- | --- | --- | --- | --- | --- | --- | --- | --- |
| mAb 5B5.2 (antibody, human IgG2, lambda, V domains shown, fully human IgG2 lambda, Campaign 2; same chains as 5B5.1) VH: QVQLVQSGAEVKKPGASVKVSCKASGYTFTDYYINWVRQAPGQGLEWMGWINPNSGGTDYAQKFQGRVTMTRDTSIRTAYMELNRLTSDDTAVYYCAREYGGYEDWFDPWGQGTLVTVSS VL: QSVLTQPPSVSGAPGQRVTISCTGSNSNIGAGFDVHWYQQLPGTVPKLLIYGNNNRPSGVPDRFSGSKSGTSASLAITGLQAEDEADYYCQSYDSRLTVFGGGTKLTVLG | 40 to 100 | 40 to 100 | 40 to 100 | no binding (tested: 1 µg) | no binding (tested: 1 µg) | no binding (tested: 1 µg) | no binding (tested: 1 µg) |  |
| mAb 5A1.1 (antibody, human IgG2, fully human, Campaign 2; lambda CL-1) heavy: QVQLVQSGAEVKKPGASVKVPCKASGYTFTDYYINWVRQAPGQGLEWMGWINPNNGGTNYAQKFQGRVTMTRDTSISTAYMELRRLRSDDTAVYYCARERGGYEDWFDPWGQGTLVTVSSASTKGPSVFPLAPCSRSTSESTAALGCLVKDYFPEPVTVSWNSGALTSGVHTFPAVLQSSGLYSLSSVVTVPSSNFGTQTYTCNVDHKPSNTKVDKTVERKCCVECPPCPAPPVAGPSVFLFPPKPKDTLMISRTPEVTCVVVDVSHEDPEVQFNWYVDGVEVHNAKTKPREEQFNSTFRVVSVLTVVHQDWLNGKEYKCKVSNKGLPAPIEKTISKTKGQPREPQVYTLPPSREEMTKNQVSLTCLVKGFYPSDIAVEWESNGQPENNYKTTPPMLDSDGSFFLYSKLTVDKSRWQQGNVFSCSVMHEALHNHYTQKSLSLSPGK VL: QSVLTQPPSVSGAPGQRVTISCTGSSSNIGAGFDVHWYQQLPVTAPKLLIYGNRNRPSGVPARFSGSKSGTSASLAITGLQAEDEAVYYCQSYDSSLTVFGGGTKLTVL | 40 to 100 | 40 to 100 | 40 to 100 | no binding (tested: 1 µg) | no binding (tested: 1 µg) | no binding (tested: 1 µg) | no binding (tested: 1 µg) |  |
| mAb 2D2.1 (antibody, human IgG2, lambda, V domains shown, fully human IgG2 lambda, Campaign 1; also called mAb 2D.1) VH: QVQLQQWGAGLLKPSETLSLTCAVYGGSFSGYYWSWIRQPPGKGLEWIGEIDHSGRINYNPALKSRLTISVDTSKNQFSLKLSSVTAADTAVYYCARAGSGGYEDWFDPWGQGTLVTVSS VL: QSVLTQPPSVSGAPGQRVTISCTGSSSNIGAGYNVHWYQQFPRTDPKLLIYVYNIRPSGVPDRFSGSRSGTSASLAITGLQTEDEADYYCQSYDSSLSGVVFGGGTKLTVLG | 40 to 100 | 40 to 100 | 40 to 100 | no binding (tested: 1 µg) | no binding (tested: 1 µg) | no binding (tested: 1 µg) | no binding (tested: 1 µg) | 0.0098 |

The next lines start with the values.

| POC (percent of control, FACS Geo Mean relative to binding to Ch. 1) [1] [%] | POC (percent of control, FACS Geo Mean relative to binding to Ch. 1) [2] [%] | POC (percent of control, FACS Geo Mean relative to binding to Ch. 1) [3] [%] | binding result (human Orai2) | binding result (human Orai3) | binding result (mouse Orai1) | binding result (rat Orai1) | Kd (human Orai1) [nM] | Binder |
| --- | --- | --- | --- | --- | --- | --- | --- | --- |
| 40 to 100 | 40 to 100 | 40 to 100 | no binding (tested: 1 µg) | no binding (tested: 1 µg) | no binding (tested: 1 µg) | no binding (tested: 1 µg) |  | mAb 5C1.1 (antibody, human IgG2, lambda, V domains shown, fully human IgG2 lambda, Campaign 2) VH: QVQLVQSGAEVKKPGASVKVSCKASGYTFTDYYMNWVRQAPGQGLEWMGWINPNSGGTKYAQKFQGRVTMTRDTSIRTAYMELSRLRSDDTAVYYCAREYGGNSDWFDPWGQGTLVTVSS VL: QSVLTQPPSVSGAPGQRVTISCTGSSSNIGAGYDVHWYQQLPGTAPKLLIYGNSNRPSGVPDRFSGSKSGTSASLAITGLQAEDEADYYCQSYDNRLSDSVVIGGGTKLAVQG |
|  |  |  | no binding (tested: 1 µg) | no binding (tested: 1 µg) | no binding (tested: 1 µg) | no binding (tested: 1 µg) | 1.8 | mAb 2B4.1 (antibody, human IgG2, lambda, V domains shown) VH: QVQLVQSGAEVKKPGASVKVSCKASGYTFTDYYMHWVRQAPGQGLEWMGWINPNSGGTNYVQKFQDRVTMTRDTSITTAYMELTRLRSDDTAVYYCAREEGDYGMDVWGQGTTVTVSS VL: QSVLTQPPSVSGAPGQRVTISCTGSNSNIGTGYDVHWYQKLPGTAPRLLIYSHFNRPSGVPDRFSGSTSGTSASLAITGLQAEDEADYYCQSYDSSLSGSVFGGGTKLTVLG |
|  |  |  | no binding (tested: 1 µg) | no binding (tested: 1 µg) | no binding (tested: 1 µg) | no binding (tested: 1 µg) | 0.133 | mAb 2B7.1 (antibody, human IgG2, V domains shown, fully human, Campaign 1) VH: QVQLQQWGAGLLKPSETLSLTCAVYGGSFSGYYWSWIRQPPGKGLEWIGEIDHSGSTNYNPALKSRLTISVDTSKNQFSLKLSSVTAADTAVYYCARAGSGGYEDWFDPWGQGTLVTVSS VL: QSVLTQPPSVSGAPGQRVTISCTGSSSNIGTGYNVHWYQQFPRTDPKLLIYVYNIRPSGVPDRFSGSRSGTSASLAITGLQTEDEADYYCQSYDSSLSGVVFGGGTKLTVLG |
|  |  |  | no binding (tested: 1 µg) | no binding (tested: 1 µg) | no binding (tested: 1 µg) | no binding (tested: 1 µg) | 0.52 | mAb 2C1.1 (antibody, human IgG2, lambda, V domains shown, fully human IgG2 lambda, Campaign 1; tested hybridoma-purified and recombinant; also called anti-hOrai1 mAb 2C1.1) VH: QVQLQQWGAGLLKPSETLSLTCAVYGGSFSGYYWSWIRQPPGKGLEWIGEIDHSGSTNYNPALKSRLTISVDTSKNQFSLKLSSVTAADTAVYYCARAGSGGYEDWFDPWGQGTLVTVSS VL: QSVLTQPPSVSGAPGQRVTISCTGSSSNIGAGYNVHWYQQFPRTDPKLLIYVYNIRPSGVPDRFSGSRSGTSASLAITGLQTEDEADYYCQSYDSSLSGVVFGGGTKLTVLG |
